Measurements reported in patent publication EP4799607A2.

Target: human VEGF165 (human) (UniProt P15692)
Test: population PK model estimate, Michaelis-Menten binding of free aflibercept to VEGF in plasma (in vivo, model-derived)

aflibercept, sequence (chain): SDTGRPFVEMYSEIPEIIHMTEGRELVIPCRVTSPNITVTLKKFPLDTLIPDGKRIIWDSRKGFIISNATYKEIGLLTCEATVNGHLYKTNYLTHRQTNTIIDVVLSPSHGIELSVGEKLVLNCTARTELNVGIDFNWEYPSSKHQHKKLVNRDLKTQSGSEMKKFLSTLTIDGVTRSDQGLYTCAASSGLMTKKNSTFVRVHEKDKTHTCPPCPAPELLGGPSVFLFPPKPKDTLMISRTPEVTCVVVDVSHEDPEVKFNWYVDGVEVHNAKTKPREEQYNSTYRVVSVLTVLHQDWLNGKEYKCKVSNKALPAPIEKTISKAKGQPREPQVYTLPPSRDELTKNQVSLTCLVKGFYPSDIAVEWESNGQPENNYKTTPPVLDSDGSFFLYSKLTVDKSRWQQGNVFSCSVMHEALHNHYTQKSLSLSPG
UniProt P15692, sequence (P15692 other isoform, or with tags, fused parts or gaps limits assumed): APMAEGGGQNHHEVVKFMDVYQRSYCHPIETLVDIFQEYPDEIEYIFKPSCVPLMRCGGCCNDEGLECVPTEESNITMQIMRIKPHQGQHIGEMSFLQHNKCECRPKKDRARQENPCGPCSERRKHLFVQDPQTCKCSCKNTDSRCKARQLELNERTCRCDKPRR

KM (concentration of free aflibercept at half of maximum binding capacity with VEGF): 0.411 mg/L
VMK24 (maximum binding rate of free aflibercept to VEGF): 0.167 mg/day/L
Substance: aflibercept (Fc fusion)
